Assay results published in the supplement of paper PMC10724198.
± gives the standard deviation of the averaged measurements.

test system: Saccharomyces cerevisiae; test: protein stability index of tFT-peptide fusion (C-terminal peptide) (PSI (0-1 scale)); higher = more stable (slower turnover); conditions: genetic background: wild type; temperature: 30 C
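Note: PSI is a weighted mean of sequencing reads over stability bins, variants kept only with over 10 reads, mCherry proximal and sfGFP distal, peptide attached via GGGS linker.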

Row | Sequence | protein stability index
1 | EVPVIGVLRSLL | 0.743 ± 0.043
2 | EVSIISECKVAS | 0.258 ± 0.011
3 | FALAYFFVLKSF | 0.172 ± 0.0026
4 | FARYLRSMYILF | 0.409 ± 0.029
5 | FAVLWFLYWCSW | 0.348 ± 0.063
6 | FCCSFFLCVCFV | 0.392 ± 0.0044
7 | FCLSPILLLRFL | 0.213 ± 0.034
8 | FCRPCCLIVFVV | 0.184 ± 0.037
9 | FFCRARHRLYVA | 0.233 ± 0.023
10 | FFFFLFRSIFLS | 0.152 ± 0.0068
11 | FFFFSMLIFCAV | 0.191 ± 0.0034
12 | FFFLLPRLFRCV | 0.45 ± 0.017
13 | FFLFCWFVPRFS | 0.435 ± 0.018
14 | FFLLCFMMCVLL | 0.259 ± 0.053
15 | FFLPIFFSIFLS | 0.156 ± 0.013
16 | FFLSAFFFFFLF | 0.361 ± 0.0086
17 | FFMLLYSFFTFD | 0.418 ± 0.014
18 | FFSSSASVLFII | 0.299 ± 0.016
19 | FFTLLLFLFFSV | 0.321 ± 0.0086
20 | FFVACCSFVFLL | 0.335 ± 0.066
21 | FGFGSSRFLLCL | 0.471 ± 0.029
22 | FGFLVVLFDCVR | 0.436 ± 0.07
23 | FGVFLLWCVLLL | 0.274 ± 0.077
24 | FIAVSLSVFLVF | 0.234 ± 0.011
25 | FIFLFVALFCVF | 0.353 ± 0.067
26 | FILIFLGILSCC | 0.378 ± 0.04

Row | Sequence | protein stability index
27 | FIYSVFFYSYWF | 0.363 ± 0.016
28 | FLFLESFLFFYL | 0.499 ± 0.02
29 | FLFVFLGVYGHV | 0.404 ± 0.012
30 | FLGPYTPGMYLA | 0.359 ± 0.037
31 | FLISVRFVLILN | 0.173 ± 0.024
32 | FLLFLPLLFFFL | 0.3904 ± 0.001
33 | FLLHLVAHFSFL | 0.527 ± 0.044
34 | FLLIVSSVSFYL | 0.342 ± 0.052
35 | FLLLSCLVRRSF | 0.4628 ± 0.00075
36 | FLRFVFSFTFFV | 0.321 ± 0.0054
37 | FLVGVARCPFLV | 0.361 ± 0.012
38 | FLVLLFCLFFCF | 0.462 ± 0.026
39 | FMCGWRMLVSVS | 0.0594 ± 0.023
40 | FPGLPVFFPPPL | 0.726 ± 0.015
41 | FPRLERVAVMAR | 0.25 ± 0.011
42 | FQILLRFFRSVA | 0.324 ± 0.017
43 | FRAKRTVFQRNS | 0.441 ± 0.012
44 | FRFFRPSFRFFC | 0.2 ± 0.06
45 | FRFPCSILMTLL | 0.258 ± 0.028
46 | FRQEVLHWRQHS | 0.342 ± 0.077
47 | FRWLAFALLFGC | 0.245 ± 0.0079
48 | FSARPFLYSFRP | 0.028 ± 0.0092
49 | FSCEFKMSCLKS | 0.507 ± 0.011
50 | FSIFFIIEFVGT | 0.242 ± 0.12
51 | FSSYLSALLIVV | 0.246 ± 0.012
52 | FSYVGFFFLLGF | 0.414 ± 0.016

Row | Sequence | protein stability index
53 | FTYCIVFFFSRL | 0.457 ± 0.014
54 | FTYFFFVRVLLV | 0.187 ± 0.0053
55 | FVCSSVFVVLLF | 0.45 ± 0.044
56 | FVFLCLLCISSF | 0.278 ± 0.012
57 | FVGCFVFYLFLL | 0.417 ± 0.013
58 | FVRVFMASIIWC | 0.452 ± 0.0082
59 | FVVFAFGVLPVK | 0.466 ± 0.011
60 | FVVRVVCRLGFF | 0.325 ± 0.015
61 | FWFSFLLSGVCC | 0.347 ± 0.04
62 | FWFVSVFIVFFC | 0.223 ± 0.026
63 | FYLPGLFFVRFR | 0.391 ± 0.022
64 | FYVIFRRACLSV | 0.292 ± 0.077
65 | GACGLGMLIFIV | 0.411 ± 0.0075
66 | GAPIFSSFLLFC | 0.412 ± 0.026
67 | GARCFGFFCFLV | 0.207 ± 0.011
68 | GCIFGNVVFVRV | 0.472 ± 0.062
69 | GCIMHLTIYVRD | 0.322 ± 0.0096
70 | GCPRSWSFNIYV | 0.408 ± 0.04
71 | GCRSLRLWLTFS | 0.443 ± 0.029
72 | GCVVVLIPVVSA | 0.382 ± 0.022
73 | GEAYVYLFVYSC | 0.25 ± 0.0051
74 | GEWCLPLRLVVY | 0.22 ± 0.043
75 | GFCVRIFHGFLH | 0.351 ± 0.01
76 | GFDVFWLWVVVA | 0.125 ± 0.019
77 | GFRMACYIRVLS | 0.296 ± 0.016
78 | GFSFVCFSPFLF | 0.42 ± 0.038

test system: Saccharomyces cerevisiae; test: as above; conditions: genetic background: cdc34-1; temperature: 37 C
Method: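 MPS profiling in S. cerevisiae of the tFT-X12 degron library: putative degron peptides plus stable controls, 12 aa, fused to the C-terminus of a sfGFP-mCherry timer. Cells are FACS-sorted into 8 mCherry/sfGFP bins and deep-sequenced. PSI runs from 0 (unstable) to 1 (stable). Backgrounds are wild type, das1Δ and doa10Δ at 30 °C, and wild type, das1Δ, cdc34-1 and cdc53-1 at 37 °C; 2-3 technical replicates each.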

Row | Sequence | protein stability index
79 | EVPVIGVLRSLL | 0.9376 ± 0.009
80 | EVSIISECKVAS | 0.5081 ± 0.0025
81 | FALAYFFVLKSF | 0.228 ± 0.019
82 | FARYLRSMYILF | 0.546 ± 0.026
83 | FAVLWFLYWCSW | 0.347 ± 0.0065
84 | FCCSFFLCVCFV | 0.349 ± 0.036
85 | FCLSPILLLRFL | 0.268 ± 0.004
86 | FCRPCCLIVFVV | 0.236 ± 0.026
87 | FFCRARHRLYVA | 0.537 ± 0.044
88 | FFFFLFRSIFLS | 0.146 ± 0.12
89 | FFFFSMLIFCAV | 0.06041 ± 0.00022
90 | FFFLLPRLFRCV | 0.791 ± 0.053
91 | FFLFCWFVPRFS | 0.454 ± 0.0056
92 | FFLLCFMMCVLL | 0.291 ± 0.015
93 | FFLPIFFSIFLS | 0.068 ± 0.038
94 | FFLSAFFFFFLF | 0.342 ± 0.04
95 | FFMLLYSFFTFD | 0.434 ± 0.0044
96 | FFSSSASVLFII | 0.686 ± 0.11
97 | FFTLLLFLFFSV | 0.352 ± 0.035
98 | FFVACCSFVFLL | 0.369 ± 0.024
99 | FGFGSSRFLLCL | 0.677 ± 0.015
100 | FGFLVVLFDCVR | 0.336 ± 0.0095
101 | FGVFLLWCVLLL | 0.226 ± 0.0076
102 | FIAVSLSVFLVF | 0.159 ± 0.015
103 | FIFLFVALFCVF | 0.31 ± 0.039
104 | FILIFLGILSCC | 0.409 ± 0.0092

Row | Sequence | protein stability index
105 | FIYSVFFYSYWF | 0.36 ± 0.043
106 | FLFLESFLFFYL | 0.5 ± 0.052
107 | FLFVFLGVYGHV | 0.281 ± 0.02
108 | FLGPYTPGMYLA | 0.656 ± 0.031
109 | FLISVRFVLILN | 0.169 ± 0.027
110 | FLLFLPLLFFFL | 0.414 ± 0.037
111 | FLLHLVAHFSFL | 0.544 ± 0.014
112 | FLLIVSSVSFYL | 0.209 ± 0.016
113 | FLLLSCLVRRSF | 0.508 ± 0.054
114 | FLRFVFSFTFFV | 0.387 ± 0.0054
115 | FLVGVARCPFLV | 0.632 ± 0.069
116 | FLVLLFCLFFCF | 0.463 ± 0.053
117 | FMCGWRMLVSVS | 0.0379 ± 0.032
118 | FPGLPVFFPPPL | 0.707 ± 0.052
119 | FPRLERVAVMAR | 0.117 ± 0.035
120 | FQILLRFFRSVA | 0.5907 ± 0.0037
121 | FRAKRTVFQRNS | 0.671 ± 0.044
122 | FRFFRPSFRFFC | 0.588 ± 0.015
123 | FRFPCSILMTLL | 0.578 ± 0.011
124 | FRQEVLHWRQHS | 0.622 ± 0.064
125 | FRWLAFALLFGC | 0.416 ± 0.011
126 | FSARPFLYSFRP | 0.694 ± 0.024
127 | FSCEFKMSCLKS | 0.649 ± 0.04
128 | FSIFFIIEFVGT | 0.179 ± 0.038
129 | FSSYLSALLIVV | 0.102 ± 0.047
130 | FSYVGFFFLLGF | 0.417 ± 0.051

Row | Sequence | protein stability index
131 | FTYCIVFFFSRL | 0.428 ± 0.024
132 | FTYFFFVRVLLV | 0.11 ± 0.045
133 | FVCSSVFVVLLF | 0.349 ± 0.017
134 | FVFLCLLCISSF | 0.202 ± 0.0059
135 | FVGCFVFYLFLL | 0.422 ± 0.023
136 | FVRVFMASIIWC | 0.478 ± 0.032
137 | FVVFAFGVLPVK | 0.496 ± 0.005
138 | FVVRVVCRLGFF | 0.2226 ± 0.0011
139 | FWFSFLLSGVCC | 0.24 ± 0.031
140 | FWFVSVFIVFFC | 0.185 ± 0.0033
141 | FYLPGLFFVRFR | 0.167 ± 0.072
142 | FYVIFRRACLSV | 0.281 ± 0.0084
143 | GACGLGMLIFIV | 0.585 ± 0.04
144 | GAPIFSSFLLFC | 0.541 ± 0.054
145 | GARCFGFFCFLV | 0.4284 ± 0.0039
146 | GCIFGNVVFVRV | 0.602 ± 0.031
147 | GCIMHLTIYVRD | 0.302 ± 0.03
148 | GCPRSWSFNIYV | 0.686 ± 0.046
149 | GCRSLRLWLTFS | 0.638 ± 0.018
150 | GCVVVLIPVVSA | 0.333 ± 0.014
151 | GEAYVYLFVYSC | 0.4329 ± 0.0022
152 | GEWCLPLRLVVY | 0.061 ± 0.013
153 | GFCVRIFHGFLH | 0.634 ± 0.0084
154 | GFDVFWLWVVVA | 0.0676 ± 0.024
155 | GFRMACYIRVLS | 0.337 ± 0.015
156 | GFSFVCFSPFLF | 0.667 ± 0.041
